According to IntAct's records for PubMed 28486698:

B1: THAP domain-containing protein 1 (Homo sapiens), Q9NVV9 (parent)
chain: MVQSCSAYGCKNRYDKDKPVSFHKFPLTRPSLCKEWEAAVRRKNFKPTKYSSICSEHFTPDCFKRECNNKLLKENAVPTIFLCTEPHDKKEDLLEPQEQLPPPPLPPPVSQVDAAIGLLMPPLQTPVNLSVFCDHNYTVEDTMHQRKRIHQLEQQVEKLRKKLKTAQQRCRRQERQLEKLKEVVHFQKEKDDVSERGYVILPNDYFEIVEVPA

Variants of: B1
Conditions: with hcfc1_human HCFC1, P51610
Sequence of hcfc1_human HCFC1, P51610 (P51610 whole entry): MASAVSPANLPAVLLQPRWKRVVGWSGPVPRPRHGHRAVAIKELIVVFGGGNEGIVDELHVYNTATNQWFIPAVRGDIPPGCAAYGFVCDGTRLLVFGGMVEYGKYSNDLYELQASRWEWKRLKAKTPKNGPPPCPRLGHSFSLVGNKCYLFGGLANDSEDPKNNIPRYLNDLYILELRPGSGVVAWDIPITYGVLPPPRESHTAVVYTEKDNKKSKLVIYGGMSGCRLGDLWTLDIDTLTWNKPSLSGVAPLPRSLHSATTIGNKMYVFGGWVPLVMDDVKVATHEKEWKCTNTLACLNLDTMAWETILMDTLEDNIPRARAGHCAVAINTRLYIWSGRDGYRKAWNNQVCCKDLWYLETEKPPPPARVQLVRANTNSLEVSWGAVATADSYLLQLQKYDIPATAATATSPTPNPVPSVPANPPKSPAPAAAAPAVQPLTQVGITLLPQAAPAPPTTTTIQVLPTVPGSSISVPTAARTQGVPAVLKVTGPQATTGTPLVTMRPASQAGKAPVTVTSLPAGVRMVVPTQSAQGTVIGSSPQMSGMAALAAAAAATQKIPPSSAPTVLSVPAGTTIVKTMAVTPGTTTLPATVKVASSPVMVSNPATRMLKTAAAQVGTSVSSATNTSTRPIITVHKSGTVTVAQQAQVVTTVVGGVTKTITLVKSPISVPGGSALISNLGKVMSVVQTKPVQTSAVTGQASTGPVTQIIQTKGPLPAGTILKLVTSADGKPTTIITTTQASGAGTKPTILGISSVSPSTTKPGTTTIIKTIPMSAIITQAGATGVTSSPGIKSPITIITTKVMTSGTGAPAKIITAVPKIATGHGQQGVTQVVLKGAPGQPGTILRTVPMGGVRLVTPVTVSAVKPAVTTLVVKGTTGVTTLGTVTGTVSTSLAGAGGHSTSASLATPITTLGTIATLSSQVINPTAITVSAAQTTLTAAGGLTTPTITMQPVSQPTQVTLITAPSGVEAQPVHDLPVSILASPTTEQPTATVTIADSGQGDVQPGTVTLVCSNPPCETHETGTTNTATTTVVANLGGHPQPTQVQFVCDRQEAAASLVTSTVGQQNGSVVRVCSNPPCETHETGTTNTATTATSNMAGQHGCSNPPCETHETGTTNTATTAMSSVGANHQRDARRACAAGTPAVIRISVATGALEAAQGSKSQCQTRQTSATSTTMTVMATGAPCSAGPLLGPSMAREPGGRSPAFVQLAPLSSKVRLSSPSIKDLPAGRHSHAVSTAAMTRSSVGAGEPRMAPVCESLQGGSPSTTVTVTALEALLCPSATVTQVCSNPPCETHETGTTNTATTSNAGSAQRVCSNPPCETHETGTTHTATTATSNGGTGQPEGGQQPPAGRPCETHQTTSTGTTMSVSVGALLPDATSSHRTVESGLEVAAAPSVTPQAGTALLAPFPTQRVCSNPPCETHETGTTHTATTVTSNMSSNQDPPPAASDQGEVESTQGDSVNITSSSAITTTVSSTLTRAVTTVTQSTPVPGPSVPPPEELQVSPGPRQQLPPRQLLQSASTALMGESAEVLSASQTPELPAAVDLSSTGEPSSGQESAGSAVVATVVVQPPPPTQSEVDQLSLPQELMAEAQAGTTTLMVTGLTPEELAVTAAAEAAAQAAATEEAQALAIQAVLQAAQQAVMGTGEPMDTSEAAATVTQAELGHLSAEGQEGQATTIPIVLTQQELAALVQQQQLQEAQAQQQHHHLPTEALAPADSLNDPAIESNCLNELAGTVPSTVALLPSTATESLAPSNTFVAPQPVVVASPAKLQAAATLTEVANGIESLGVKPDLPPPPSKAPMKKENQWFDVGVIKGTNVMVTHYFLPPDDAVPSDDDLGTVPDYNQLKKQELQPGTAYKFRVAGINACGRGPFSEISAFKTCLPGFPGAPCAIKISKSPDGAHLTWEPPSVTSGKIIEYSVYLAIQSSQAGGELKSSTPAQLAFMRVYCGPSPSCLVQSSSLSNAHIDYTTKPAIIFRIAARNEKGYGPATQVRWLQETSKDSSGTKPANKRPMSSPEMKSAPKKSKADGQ

Variant | effect of a mutation on the interaction
N136S | disrupting interaction strength
Y137C | disrupting interaction strength
N136K | disrupting interaction strength

Variants of: B1
Conditions: with hcfc1_human HCFC1, P51610
Remark: another data set of the same source

Variant | effect of a mutation on the interaction
N136S | decreasing interaction strength
